Experimental data taken from patent publication US20250263481A1.

Molecular target: human CLDN18.2 expressed on cells (human)
Assay: cell-based or functional assay

ADCC, FACS: Max (%): 8.3%
ADCC, LDH: Max (%): 1.5%
Substance: Human IgG1 isotype antibody
ADCC on KATOIII CLDN18.2 cells, LDH: max (% cytotoxity) (run A): 0.3%
ADCC on KATOIII CLDN18.2 cells, LDH: max (% cytotoxity) (run B): -5.51%
ADCC on KATOIII CLDN18.2 cells, LDH: max (% cytotoxity) (run C): -7.64%
ADCC on NCI-N87 CLDN18.2 cells, LDH: max (% cytotoxity) (run A): -6.73%
ADCC on NCI-N87 CLDN18.2 cells, LDH: max (% cytotoxity) (run B): -11.7%
ADCC on NCI-N87 CLDN18.2 cells, LDH: max (% cytotoxity) (run C): -9.22%
CDC on CT26 CLDN18.2 cells, LDH: max (% cytotoxity) (run A): 10.8%
CDC on CT26 CLDN18.2 cells, LDH: max (% cytotoxity) (run B): -0.23%
CDC on CT26 CLDN18.2 cells, LDH: max (% cytotoxity) (run C): -0.38%
CDC on KATOIII CLDN18.2 cells, LDH: max (% cytotoxity) (run A): -0.85%
CDC on KATOIII CLDN18.2 cells, LDH: max (% cytotoxity) (run B): -2.46%
CDC on KATOIII CLDN18.2 cells, LDH: max (% cytotoxity) (run C): -1.53%
